Laboratory results published in patent publication US20220112288A1 (published 2022).
Positions count from the first letter of the chain named.

B1: 75110_04G16A (antibody, V domains shown)
VH: QVQLQESGPGLVKPSQTLSLTCTVSGDSISSGYYYWSWIRQHPGKGLEWIGYISYSGSTYYNPSLKSRLTISVNTSKNQFSLKLSSLTAADTAVYYCARDRPSNFDAFDIWGQGTMVTVSS
VL: EIVLTQSPGTLSLSPGERATLSCRASQSVGSTYLAWYQQKPGQAPRLLIYGAFSRATGIPDRFSGSGSGTDFTLTISRLEPEDFAVYYCQQYGSSPLTFGPGTKVDIK
notes: Tested as non-clonal AlivaMab Mouse hybridoma supernatant (chimeric: human variable regions and human kappa, mouse Fc, captured by anti-mouse IgG Fc sensors); also called ADS75110 non-clonal supernatant 04G16A
B2: 75110_01G11A (antibody, V domains shown)
VH: EVQLVESGGGLVQPGGSLRLSCAASGFTFSSYDMHWVRQATGKGLEWVSTIGTAGDTYYPGSVKGRFTISRENARNSLFLQMNSLRAGDTAVYYCARGGDYYYGMDVWGQGTTVTVSS
VL: B1 VL with S14F, S28N, V29T, G30Y, T32S, F53S, S54N, Y92H, S94T, L97F
notes: Tested as non-clonal AlivaMab Mouse hybridoma supernatant (human variable regions and human kappa, mouse Fc); also called ADS75110 non-clonal supernatant 01G11A
B3: 75110_08H11A (antibody, V domains shown)
VH: B2 VH with R75K, F79Y, D100Y, Y101S
VL: B1 VL with R24G, G30S, F53S, Y92F, L97F
notes: Tested as non-clonal AlivaMab Mouse hybridoma supernatant (human variable regions and human kappa, mouse Fc); also called ADS75110 non-clonal supernatant 08H11A
B4: 75110_01J17A (antibody, V domains shown)
VH: B2 VH with A40G, G55D, R75E, F79Y
VL: B1 VL with T5A, G30Y, S31I, T32S, F53S, S77T, Y92F, L97F, I107F
notes: Tested as non-clonal AlivaMab Mouse hybridoma supernatant (human variable regions and human kappa, mouse Fc); also called ADS75110 non-clonal supernatant 01J17A
B5: 75110_01K10A (antibody, V domains shown)
VH: B2 VH with G10A, S30R, S31N, R75K, F79Y
VL: B1 VL with G9D, V29L, G30S, T32V, F53S, S66T, L97F
notes: Tested as non-clonal AlivaMab Mouse hybridoma supernatant (human variable regions and human kappa, mouse Fc); also called ADS75110 non-clonal supernatant 01K10A
B6: 75110_01N04A (antibody, V domains shown)
VH: B2 VH with S31N, R75K, F79Y, Y101F, M105L
VL: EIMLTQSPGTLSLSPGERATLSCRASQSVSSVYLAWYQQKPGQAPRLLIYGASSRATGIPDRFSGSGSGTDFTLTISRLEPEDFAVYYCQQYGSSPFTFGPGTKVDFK
notes: Tested as non-clonal AlivaMab Mouse hybridoma supernatant (human variable regions and human kappa, mouse Fc); also called ADS75110 non-clonal supernatant 01N04A
B7: 75110_04F22A (antibody, V domains shown)
VH: B2 VH with M34I, R75K, F79Y, D100Y
VL: B1 VL with G30Y, T32S, F53S, Y92F, S94T, L97F
notes: Tested as non-clonal AlivaMab Mouse hybridoma supernatant (human variable regions and human kappa, mouse Fc); also called ADS75110 non-clonal supernatant 04F22A
B8: 75110_04P06A (antibody, V domains shown)
VH: B2 VH with S31N, R75K, F79Y
VL: B1 VL with G9D, V29L, G30S, T32V, F53S, S77N, A85V, L97F
notes: Tested as non-clonal AlivaMab Mouse hybridoma supernatant (human variable regions and human kappa, mouse Fc); also called ADS75110 non-clonal supernatant 04P06A
B9: 75110_05K11A (antibody, V domains shown)
VH: B2 VH with A40P, G61A, R75K, F79Y, D100F
VL: B1 VL with A19V, G30S, S31N, F53S, A85V, Y92H, L97F
notes: Tested as non-clonal AlivaMab Mouse hybridoma supernatant (human variable regions and human kappa, mouse Fc); also called ADS75110 non-clonal supernatant 05K11A
B10: 75110_07E04A (antibody, V domains shown)
VH: B2 VH with A24V, R75K, N76K, S77F, F79Y, D100Y
VL: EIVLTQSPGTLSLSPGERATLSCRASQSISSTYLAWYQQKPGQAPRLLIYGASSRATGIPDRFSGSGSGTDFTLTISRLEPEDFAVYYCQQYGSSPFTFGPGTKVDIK
notes: Tested as non-clonal AlivaMab Mouse hybridoma supernatant (human variable regions and human kappa, mouse Fc); also called ADS75110 non-clonal supernatant 07E04A
B11: 75110_08H06A (antibody, V domains shown)
VH: B2 VH with S31N, R75K, F79Y, D100Y, Y101D
VL: B1 VL with V29I, G30T, T32I, Q38R, F53S, L97F
notes: Tested as non-clonal AlivaMab Mouse hybridoma supernatant (human variable regions and human kappa, mouse Fc); also called ADS75110 non-clonal supernatant 08H06A
B12: 75110_10N21A (antibody, V domains shown)
VH: B2 VH with A40V, R75K, F79Y, D100Y
VL: B1 VL with V29F, G30I, T32S, F53S, E80D, Y92S, S94N, L97F, I107V
notes: Tested as non-clonal AlivaMab Mouse hybridoma supernatant (human variable regions and human kappa, mouse Fc); also called ADS75110 non-clonal supernatant 10N21A
B13: 75110_13C07A (antibody, V domains shown)
VH: B2 VH with G10V, S31N, I69L, R75K, F79Y, N83H, G99A, D100Y, Y101G
VL: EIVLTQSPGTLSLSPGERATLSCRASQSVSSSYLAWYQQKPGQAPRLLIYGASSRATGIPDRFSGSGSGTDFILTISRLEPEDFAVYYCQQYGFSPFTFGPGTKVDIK
notes: Tested as non-clonal AlivaMab Mouse hybridoma supernatant (human variable regions and human kappa, mouse Fc); also called ADS75110 non-clonal supernatant 13C07A
B14: 75110_14H13A (antibody, V domains shown)
VH: B2 VH with S31N, E72K, R75K, F79Y, N83I
VL: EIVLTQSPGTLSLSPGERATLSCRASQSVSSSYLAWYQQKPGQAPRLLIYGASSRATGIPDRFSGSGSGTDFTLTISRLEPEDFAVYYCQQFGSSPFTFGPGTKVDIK
notes: Tested as non-clonal AlivaMab Mouse hybridoma supernatant (human variable regions and human kappa, mouse Fc); also called ADS75110 non-clonal supernatant 14H13A
B15: 75110_02I16A (antibody, V domains shown)
VH: QVQLQQWGAGLLKPSETLSLTCDVYGGSFSGYYWTWIRQPPGKGLEWIGEINHSGTTNSNPSLKSRVTISVDTSKSQFSLRLSSVTAADTAVYFCTRELNWFDPWGQGTLVTVSS
VL: DIQMTQSPSSVSASVGDRVTITCRASQDIANWLAWYQQKPGKAPQLLIYAASSLLGGVPSRFSGSGSGADFTLTISSLHPEDFATYYCQQANSFPYTFGQGTKLEIK
notes: Tested as non-clonal AlivaMab Mouse hybridoma supernatant (human variable regions and human kappa, mouse Fc); also called ADS75110 non-clonal supernatant 02I16A
B16: 75110_10K21A (antibody, V domains shown)
VH: EVQLVESGGGLVQPGGSLRLSCAASGFTFSSYWMTWVRQAPGKGLEWVANIKQDGSEKYYVDSVKGRFTISRDNAKNSLYLQMNSLRAEDTAVYYCVRDRYDALDIWGQGTMVTVSS
VL: AIQMTQSPSSLSASVGDRVTITCRASQGIRNDLNWYQQKPGKAPKLLIYAASSLQSGVPSRFSGSGSGTDFTLTISSLQAEDFATYYCLKDYNYPYTFGQGTKLEIK
notes: Tested as non-clonal AlivaMab Mouse hybridoma supernatant (human variable regions and human kappa, mouse Fc); also called ADS75110 non-clonal supernatant 10K21A
B17: 75110_01H18A (antibody, V domains shown)
VH: QVQLQQWGAGLLKPSETLSLTCAVYGGSFSGYYWSWIRQSPGKGLEWIGEINQSGSTNYNPSLKSRVTISVDTSKNQFSLKLSSVTAADTAVYYCARVINWFDSWGQGTLVTVSS
VL: DIQMTQSPSSVSASVGDRVTITCRASQGISSWLAWYQQKPGKAPKLLIYAASSFQSGVPSRFSGSGSGTDFTLTISSLQTEDFATYYCQQANSFPYTFGQGTRLEIK
notes: Tested as non-clonal AlivaMab Mouse hybridoma supernatant (human variable regions and human kappa, mouse Fc); also called ADS75110 non-clonal supernatant 01H18A
B18: 75110_05B13A (antibody, V domains shown)
VH: QVLLEQWGAGLLKPSETLSLTCAVYGGSFSGYYWTWIRQPPGKGLEWIGEINHRGSTNYNPSLKSRVTISIDTSKNQFSLKVKSVTAADTAMYYCTRPDSNWFDPWGQGTLVTVSS
VL: B17 VL with G28D, S31N, Y49F, F54L, T80P, Y96L, Q100G, R103K, L104V
notes: Tested here as non-clonal hybridoma supernatant from AlivaMab Mouse Kappa mice (detected with anti-mouse Fc and anti-human kappa)

How the values were obtained:
[1] = biological target: T1, Recombinant human CD4 (R&D Systems, Cat. 10327-CD) (human, UniProt P01730 26-390, limits assumed); experiment: BLI (Octet Red 384), non-clonal supernatant captured on AMC sensors, 100 nM human CD4, 1:1 local fit;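 also: hybridoma antibodies from supernatants, one CD4 concentration giving single-point kinetics per supernatant, with curves fitted over both association and dissociation phases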
T1 construct: Bought protein; also called huCD4

[2] = biological target: T1, Recombinant human CD4 (R&D Systems, …); experiment: BLI (Octet Red 384), non-clonal supernatant captured on AMC sensors, 100 nM human CD4
[3] = biological target: T2, human CD4 on the surface of SKW3 cells or human PBMCs (human, UniProt P01730 26-458); experiment: FACS primary screen, non-clonal hybridoma supernatant, SKW3 vs SKW3 CD4 KO cells, anti-mouse Fc A647
T2 construct: whole, on cells; SKW3 CD4 knockout cells served as the negative cell line; also called hCD4; SKW3 WT

[4] = biological target: T2, human CD4 on the surface of SKW3 cells …; experiment: FACS binning on SKW3 cells; competitor RPA-T4-PE-Dazzle 594 (its signal read); background 783, max binding 15000
[5] = biological target: T2, human CD4 on the surface of SKW3 cells …; experiment: FACS primary screen, non-clonal hybridoma supernatant, SKW3 vs SKW3 CD4 KO cells, anti-human kappa FITC
[6] = biological target: T2, human CD4 on the surface of SKW3 cells …; experiment: FACS confirmation, supernatant on SKW3 WT cells, anti-mouse Fc A647; background gMFI 3300
[7] = biological target: T2, human CD4 on the surface of SKW3 cells …; experiment: FACS confirmation, supernatant on human PBMCs, anti-mouse Fc A647, CD4+ gate
[8] = biological target: T2, human CD4 on the surface of SKW3 cells …; experiment: FACS binning on SKW3 cells; competitor OKT4-Alexa Fluor 488 (its signal read); background 2163, max binding 8200
[9] = biological target: T2, human CD4 on the surface of SKW3 cells …; experiment: FACS binning on SKW3 cells; competitor OKT4a, anti-human A647 secondary (its signal read); background 5000, max binding 35000
[10] = biological target: T2, human CD4 on the surface of SKW3 cells …; experiment: FACS confirmation, supernatant on SKW3 WT cells, anti-human kappa FITC; background gMFI 2500
huCD4-HIS = biological target: T3, huCD4-HIS (human, UniProt P01730 26-390, limits assumed); experiment: ELISA binning; competitor ibalizumab; 100 ng/mL huCD4-HIS, anti-HIS HRP detection; background 45, max binding 3000000
T3 construct: not shown: HIS tag

[11] = biological target: T2, human CD4 on the surface of SKW3 cells …; experiment: FACS confirmation, supernatant on human PBMCs, anti-mouse Fc A647

Binder	Kd [1] [nM]	koff [1] [s⁻¹]	kon [1] [M⁻¹ s⁻¹]	Response [2]	other results
B1	0.95	7.1e-05	74000	0.15	
B2	5.3	0.00025	47000	0.04	
B3	2.9	0.00065	230000	0.08	
B4	< 0.001	< 1e-07	37000	0.06	
B5	340	0.00042	1200	0.03	
B6	2.2	4.8e-05	22000	0.06	
B7	< 0.001	< 1e-07	15000	0.05	
B8	< 0.001	< 1e-07	12000	0.06	
B9	< 0.001	< 1e-07	12000	0.05	
B10	11000	0.013	1200	0.01	
B11	< 0.001	< 1e-07	120000	0.06	
B12	0.873	0.000133	152000	0.0658	
B13	84	0.0182	217000	0.0171	
B14	< 0.001	< 1e-07	100000	0.14	
B15	3.9	0.0012	308000	0.0373	
B16	2.66	0.000362	136000	0.0687	
B17	0.902	0.000148	165000	0.0657	
B18					SKW3 WT vs KO anti-mFc-647 [3]: 3.1 ratio; RPA-T4-PE-Dazzle 594 signal [4]: 20300; SKW3 WT vs KO anti-hKappa-FITC [5]: 2.4 ratio; SKW3 WT anti-mFc 647, gMFI [6]: 26000 gMFI; PBMCs, anti-mFc 647 CD4+ gate - RL1 Binding [7]: 228000; OKT4 A488 signal [8]: 9670; OKT4a anti-hu A647 Secondary signal [9]: 5340; SKW3 WT anti-hu Kappa FITC, gMFI [10]: 7310 gMFI; Ibalizumab ELISA binning signal (huCD4-HIS): 1.03e+06; PBMCs, anti-mFc 647 CD4+ Percent Bound of Viable [11]: 27%
